Laboratory results: patent US20090053184A1

Assays:
Experiment in all cases: chromium release; transduced lymphocytes against T2 cells having HLA-A2 pulsed with 'NY-ESO-1 peptide'; which of the listed peptides not given; full-length, on cells
Settings in all cases: chains Valpha:Vbeta
[1] = target: T1, NY-ESO-1 peptide on HLA-A*02:01 (human)
T1 chain: SLLMWTTQCFLP

[2] = target: T2, NY-ESO-1 peptide on HLA-A*02:01 (human)
T2 chain: SLLMWTTQV

[3] = target: T3, NY-ESO-1 peptide on HLA-A*02:01 (human)
T3 chain: SLLMWTTQC

Measured: lowest peptide concentration that stimulated killing

B1: anti-NY-ESO-1 TCR (SEQ ID NOS: 6 and 8) (protein)
chain 1: SQQGEEDPQALSIQEGENATMNCSYKTSINNLQWYRQNSGRGLVHLILIRSNEREKHSGRLRVTLDTSKKSSSLLITASRAADTASYFCATDGAGKSTFGDGTTLTVKP
chain 2: DAGVIQSPRHEVTEMGQEVTLRCKPISGHDYLFWYRQTMMRGLELLIYFNNNVPIDDSGMPEDRFSAKMPNASFSTLKIQPSEPRDSAVYFCASTIGAQPQHFGDGTRLSIL
< 0.02 nM: [1] | [2] | [3]
